± gives the uncertainty stated by the source.

The text below walks through data of the supplement of paper PMC12042874.

The nature of this data set: amyloid nucleation score (Sup35N fusion, yeast selection) (log enrichment); library NNK3; higher = more nucleation; inactive = no reads after selection. Put shortly:
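Peptides of 20 random codons, each fused to Sup35N, were expressed in psi-negative yeast. Cells were induced with 100 μM copper sulfate for 24 hours and grown 7 days at 30°C on medium lacking adenine and uracil, and plasmid inserts before and after selection were Illumina-sequenced. Nucleation scores are DiMSum log enrichments of output over input reads, centred on the mode score of non-aggregating sequences, and sequences under 100 input reads were excluded.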
Consider CNVTLSSTYEK, for which the amyloid nucleation score entry was “inactive”.
Then SFRHKYYEHRPTIWDMDCDL, with “inactive”.
Then NSFVVTCLVSVGKRGKSRWL, with 1.25 ± 0.13.
Then SKTIYWFPPYPYVQFGCHRR, with “inactive”.
For VFVMETTKLFSNDIGVRGGW, the amyloid nucleation score was found to be 0.717 ± 0.15.
Under STMLSYAVWALDMVFSYKVY stands -0.509 ± 0.84; under ILTNTIRGKVDSLRLFKTSW, “inactive”.
As to EGKIHNSRLGYFQRRLIVS, the amyloid nucleation score result is “inactive”.
Under VIRSNYWHTLNWLQQNKSRG stands “inactive”; under SYMITLLKVIILSWHTYAVM, “inactive”; under NYPSYSMHNDIFYAFNFSIS, 2.17 ± 0.084.
Then MLISERIFQYTCGNYS, with 2.09 ± 0.085; and KEGDFPLSSSRYSYTNYLVI, with “inactive”.
Then LFDRTLL, with “inactive”; and ASDCWLFIGNAGSFTGKRSC, with “inactive”.
Regarding YPCNFYWFRNILADTPIQYD, the amyloid nucleation score entry is “inactive”.
On to GHKVSSIDNHFPILSSEAFK, for which the amyloid nucleation score entry is “inactive”.
As to HNSCGGY, the amyloid nucleation score entry was “inactive”.
Then KPLMWESSDNPEGWQLSLLG, with -0.79 ± 1.4.
Under HVGLRAKLTFLDRVYLSILS stands “inactive”; under MSSHFSSKAFGFHYGF, “inactive”; under ELRTNYRKLLSSQAEVGCMV, “inactive”.
On to YTLYLGCGTNDVWVDAYLYS, for which the amyloid nucleation score entry was “inactive”.
Under SLRSYSDVSVVRFDANSTVS stands “inactive”; under AYKNRSFFLVVVITYNRVMP, “inactive”.
Then IFSRLGFVCLIMFTC, with “inactive”; and RYRPHNPDVVN, with “inactive”; and SILKDS, with “inactive”.
With ALLTAYDRKNTNGYAGVRWN, the amyloid nucleation score entry was “inactive”.
Then LTSLVLVLLLCSTRNGNGTC, with 1.55 ± 0.085; and QYLTRVHSPEDGTMA, with 0.125 ± 0.75.
Then DTLYIASYEAVSGLRSPYER, with “inactive”; and LIGFLNNSVFMSAGY, with “inactive”.
Then EKFMPHTELLNVWGLRQILM, with “inactive”; and IHDDSKNGK, with 0.57 ± 0.16.
GSTTCLYTSIPCCAGVLS gave an amyloid nucleation score of 0.449 ± 0.21.
Consider NENFTNAQQNFYDCVF, for which the amyloid nucleation score entry was “inactive”.
Under STDLVIFMSTLPVCSCYCGQ stands 1.72 ± 0.08.
Under SFFFHSKSSGKTLNWSSDKA stands 0.956 ± 0.091; under CRIYCLLPISMIGSCSFIVH, “inactive”.
As to SDVDDKVHKVHQQLVAILHF, the amyloid nucleation score came to 0.624 ± 0.17.
As for VTFTHKEHGRPNTRSFTKYL, the amyloid nucleation score entry is “inactive”.
Then TKWFCVFTLSRNINRFTRL, with “inactive”.
As to VKREWSAI, the amyloid nucleation score result was “inactive”.
CADGSSFRETPSNFTHPNIL: the amyloid nucleation score result was “inactive”.
Under LNIFTYMCVMALMCLEKITS stands 1.73 ± 0.11; under CLVNWPMWENPWSPHFGSNY, “inactive”; under HFLRRTDFYTANWA, “inactive”.
Under SAYFAVY stands “inactive”; under SIMIVLCGKLTLNFSLRNVV, “inactive”.
Under SDERCLFGVQRYMHVFLRPI stands “inactive”.
In the case of LLFQSIVVY, the amyloid nucleation score entry is “inactive”.
Then ERARAAWSNGKAGLLWSGPG, with “inactive”.
